This is an account of results in publication PMC2172279.

Holding throughout (assay): co-sedimentation
Assay [1] has as its target MD2IQ heavy chain (murine myosin V motor domain and the first two IQ motifs) (murine) (UniProt Q99104).
Assay [2] addresses dFull heavy chain (expressed full-length murine myosin V) (murine).
Assay [3] deals with dHMM heavy chain (dilute heavy meromyosin: six IQ motifs followed by a coiled-coil tail) (murine) (UniProt Q99104).

With “wild-type calmodulin (WT-CaM) (from UniProt P0DP33 1-149) (natural protein)”, the results for the mol CaM dissociated per mol HC in calcium (mol CaM per mol HC) in assay [1], in assay [2] and in assay [3] were 0.5, 1.7 and 1.5, respectively.
